Among the data in patent publication US20240141025A1 (PROTHENA BIOSCIENCES, published 2024) are Kd, koff and kon values, retold here.

B1: Hu14G8 H2L1 (antibody, human IgG1, kappa, V domains shown)
VH: EVQLVESGGGLVQPGGSLKLSCAASGFTFSSYTMSWVRQTPEKRLELVAEINNSGDTTYYPDTVKGRFTISRDNAKNTLYLQMSSLKSEDTAMYYCARHYYYGGGYGGWFFDVWGQGTLVTVSS
VL: DIVMTQSAPSLPVTPGESVSISCRSNKSLLHSNGNTYLYWFLQKPGQSPQLLIYRVSNLASGVPDRFSGSGSGTAFTLKISRVEAEDVGVYYCMQHLEYPLTFGQGTKLEIKR
notes: also called humanized 14G8 VHv2/VLv1
B2: Hu14G8 H2L3 (antibody, human IgG1, kappa, V domains shown)
VH: EVQLVESGGGLVQPGGSLKLSCAASGFTFSSYTMSWVRQTPEKRLELVAEINNSGDTTYYPDTVKGRFTISRDNAKNTLYLQMSSLKSEDTAMYYCARHYYYGGGYGGWFFDVWGQGTLVTVSS
VL: DIVMTQSPLSLPVTPGEPASISCRSSKSLLHSNGNTYLYWFLQKPGQSPQLLIYRVSNLASGVPSRFSGSGSGTDFTLKISRVEAEDVGVYYCMQHLEYPLTFGQGTKLEIKR
notes: also called humanized 14G8 VHv2/VLv3
B3: Hu14G8 H2L2 (antibody, human IgG1, kappa, V domains shown)
VH: EVQLVESGGGLVQPGGSLKLSCAASGFTFSSYTMSWVRQTPEKRLELVAEINNSGDTTYYPDTVKGRFTISRDNAKNTLYLQMSSLKSEDTAMYYCARHYYYGGGYGGWFFDVWGQGTLVTVSS
VL: DIVMTQSPLSLPVTPGEPASISCRSNKSLLHSNGNTYLYWFLQKPGQSPQLLIYRVSNLASGVPDRFSGSGSGTDFTLKISRVEAEDVGVYYCMQHLEYPLTFGQGTKLEIKR
notes: also called humanized 14G8 VHv2/VLv2
B4: Hu14G8 H3L1 (antibody, human IgG1, kappa, V domains shown)
VH: EVQLVESGGGLVQPGGSLKLSCAASGFTFSSYTMSWVRQTPEKRLELVAEINNSGDTTYYPDTVKGRFTISRDNAKNTLYLQMNSLRAEDTAVYYCARHYYYGGGYGGWFFDVWGQGTLVTVSS
VL: DIVMTQSAPSLPVTPGESVSISCRSNKSLLHSNGNTYLYWFLQKPGQSPQLLIYRVSNLASGVPDRFSGSGSGTAFTLKISRVEAEDVGVYYCMQHLEYPLTFGQGTKLEIKR
notes: also called humanized 14G8 VHv3/VLv1
B5: Hu9D5 H3L1 (antibody, human IgG1, kappa, V domains shown)
VH: EVQLVESGGGLVQPGGSLRLSCAASGFTFSSYTMSWVRQAPGKGLEWVSEISNSGDTTYYPDTVKGRFTFSRDNAKNSLYLQSNLLRAEDTAVYYCARHYYYGGGYGGWFFDVWGQGTTVTVSS
VL: DIVMTQSPLSLPVTPGEPASISCRSSKSLLHSNGNTYLYWFLQKPGQSPQLLIYRVSNLASGVPDRFSGSGSGTDFTLKISRVEAEDVGVYYCMQHLEYPLTFGQGTKLEIKR
notes: also called humanized 9D5 VHv3/VLv1
B6: Hu9D5 H2L5 (antibody, human IgG1, kappa, V domains shown)
VH: EVQLVESGGGLVQPGGSLRLSCAASGFTFSSYTMSWVRQAPGKGLELVAEISNSGDTTYYPDTVKGRFTFSRDNAKNSLYLQSNLLRAEDTAVYYCARHYYYGGGYGGWFFDVWGQGTTVTVSS
VL: DIVMTQSAPSLPVTPGESVSISCRSSKSLLHSNGNTYLYWFLQRPGQSPQLLIYRVSNLASGVPSRFSGSGSGTAFTLRISRVEAEDVGVYYCMQHLEYPLTFGQGTKLEIKR
notes: also called humanized 9D5 VHv2/VLv5
B7: Hu9D5 H4L1 (antibody, human IgG1, kappa, V domains shown)
VH: EVQLVESGGGLVQPGGSLRLSCAASGFTFSSYTMSWVRQAPGKGLEWVSEISNSGDTTYYPDTVKGRFTISRDNAKNSLYLQSNLLRAEDTAVYYCARHYYYGGGYGGWFFDVWGQGTTVTVSS
VL: DIVMTQSPLSLPVTPGEPASISCRSSKSLLHSNGNTYLYWFLQKPGQSPQLLIYRVSNLASGVPDRFSGSGSGTDFTLKISRVEAEDVGVYYCMQHLEYPLTFGQGTKLEIKR
notes: also called humanized 9D5 VHv4/VLv1

The first assay addresses T1, recombinant human TTR F87M/L110M (human, UniProt P02766 21-147). As to the kind of experiment: SPR (Biacore), mAb captured on anti-human chip, TTR F87M/L110M as analyte. (In general: In SPR one partner is held on a chip, and binding of the other changes the refractive index at the surface.)
With B1, the Kd (commonly the constant that tells how readily two partners part at equilibrium) was determined as 2.26 nM; the dissociation rate constant (koff) (as a rule, a measure of how fast the partners let go of each other) turned out to be 0.000693 s⁻¹; the kon (in general, a measure of how fast the partners come together) worked out at 307000 M⁻¹ s⁻¹.
On the same counts, the results for B2 are 1.24 nM, 0.000318 s⁻¹ and 252000 M⁻¹ s⁻¹.
On the same counts, the results for B3 are 2.1 nM, 0.000683 s⁻¹ and 326000 M⁻¹ s⁻¹.
On to B4, for which the Kd came to 1.76 nM, the koff worked out at 0.000677 s⁻¹ and the kon worked out at 386000 M⁻¹ s⁻¹.

For another assay, the target named is T1, recombinant human TTR F87M/L110M. The assay is described as above. The source holds these as a separate data set.
In the case of B5, the Kd was found to be 4.32 nM, the koff amounted to 0.000657 s⁻¹ and the kon was 152000 M⁻¹ s⁻¹.
On the same counts, the results for B6 are 6.84 nM, 0.000785 s⁻¹ and 115000 M⁻¹ s⁻¹.
For B7, the dissociation constant (Kd) was found to be 2.09 nM, the koff was 0.000533 s⁻¹ and the kon came to 254000 M⁻¹ s⁻¹.
